# Results published in patent publication US20210309722A1 (DUKE UNIVERSITY, published 2021).
# How the values were obtained:
# [1] = biological target: GLP-1 receptor; assay: cell-based or functional assay
# [2] = biological target: FGF21 receptor complex (murine β-Klotho and FGF receptor 1) (murine, UniProt Q99N32 1-1043; P16092 22-822); assay: cell-based or functional assay
# Chain of FGF21 receptor complex (murine β-Klotho and FGF receptor 1) (Q99N32 whole entry, chain 1 of 2): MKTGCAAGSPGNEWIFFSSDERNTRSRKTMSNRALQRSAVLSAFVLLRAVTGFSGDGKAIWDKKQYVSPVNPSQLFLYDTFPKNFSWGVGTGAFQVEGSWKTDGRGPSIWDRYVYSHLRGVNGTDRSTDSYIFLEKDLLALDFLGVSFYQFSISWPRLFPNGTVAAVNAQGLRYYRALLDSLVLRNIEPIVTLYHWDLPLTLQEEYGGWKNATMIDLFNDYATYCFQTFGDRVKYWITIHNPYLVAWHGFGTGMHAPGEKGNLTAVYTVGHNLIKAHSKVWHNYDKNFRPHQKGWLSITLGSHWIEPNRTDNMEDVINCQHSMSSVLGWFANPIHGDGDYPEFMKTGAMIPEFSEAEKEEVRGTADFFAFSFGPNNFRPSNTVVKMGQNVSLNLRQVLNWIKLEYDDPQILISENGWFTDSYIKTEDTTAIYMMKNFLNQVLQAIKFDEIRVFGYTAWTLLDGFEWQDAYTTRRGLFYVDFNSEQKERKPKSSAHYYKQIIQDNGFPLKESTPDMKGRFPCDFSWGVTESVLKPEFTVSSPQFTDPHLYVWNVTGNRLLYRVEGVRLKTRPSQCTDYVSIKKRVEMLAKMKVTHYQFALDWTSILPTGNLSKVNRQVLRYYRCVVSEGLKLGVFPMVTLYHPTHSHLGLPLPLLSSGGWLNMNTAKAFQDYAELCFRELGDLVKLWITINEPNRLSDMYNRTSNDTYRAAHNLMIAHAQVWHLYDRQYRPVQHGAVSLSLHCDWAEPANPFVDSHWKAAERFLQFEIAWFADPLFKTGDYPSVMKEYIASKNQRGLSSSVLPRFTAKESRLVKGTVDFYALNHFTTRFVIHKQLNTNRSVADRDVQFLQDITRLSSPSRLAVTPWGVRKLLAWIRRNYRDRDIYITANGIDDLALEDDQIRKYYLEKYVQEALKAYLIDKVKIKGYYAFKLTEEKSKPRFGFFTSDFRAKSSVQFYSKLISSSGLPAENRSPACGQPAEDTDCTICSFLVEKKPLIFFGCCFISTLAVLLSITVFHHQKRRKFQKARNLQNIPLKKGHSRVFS
# Chain of FGF21 receptor complex (murine β-Klotho and FGF receptor 1) (P16092 22-822, chain 2 of 2): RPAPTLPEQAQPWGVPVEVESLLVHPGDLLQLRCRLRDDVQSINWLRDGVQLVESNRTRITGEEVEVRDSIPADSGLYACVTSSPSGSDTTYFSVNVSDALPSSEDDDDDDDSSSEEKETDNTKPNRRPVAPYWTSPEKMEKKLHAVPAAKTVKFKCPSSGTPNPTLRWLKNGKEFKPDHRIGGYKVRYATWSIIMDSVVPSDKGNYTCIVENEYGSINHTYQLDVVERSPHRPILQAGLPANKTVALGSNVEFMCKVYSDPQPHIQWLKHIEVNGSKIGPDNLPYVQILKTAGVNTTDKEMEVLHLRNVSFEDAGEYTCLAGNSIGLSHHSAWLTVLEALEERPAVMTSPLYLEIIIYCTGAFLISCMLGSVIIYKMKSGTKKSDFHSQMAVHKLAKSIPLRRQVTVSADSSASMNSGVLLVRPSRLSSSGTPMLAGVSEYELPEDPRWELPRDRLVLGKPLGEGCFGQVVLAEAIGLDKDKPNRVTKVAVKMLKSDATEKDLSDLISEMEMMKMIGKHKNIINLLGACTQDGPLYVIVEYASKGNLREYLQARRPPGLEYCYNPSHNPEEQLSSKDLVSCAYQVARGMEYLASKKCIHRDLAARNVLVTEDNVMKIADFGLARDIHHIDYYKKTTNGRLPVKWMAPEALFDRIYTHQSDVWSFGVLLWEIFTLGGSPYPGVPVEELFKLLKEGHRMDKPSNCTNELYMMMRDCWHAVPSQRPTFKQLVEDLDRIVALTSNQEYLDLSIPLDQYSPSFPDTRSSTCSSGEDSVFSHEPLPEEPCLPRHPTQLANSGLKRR
"GLP-1R EC50, cAMP production (cAMP-inducible luciferase reporter) in HEK293 cells expressing GLP-1R [1]","fold increase of EC50 against native GLP1, cAMP production assay [1]","FGF21 receptor EC50, ERK1/2 phosphorylation (phospho-ERK1/2 normalized to total ERK1/2) in HEK293 cells expressing FGFR1 and β-Klotho [2]",Binder,other results
0.0239 nM,~10 fold,,"GLP1-ELP20%Ala,120-FGF21 (no AA leader) (other) HGEGTFTSDVSSYLEEQAAKEFIAWLVKGAGVGVPGVGVPGAGVPGVGVPGVGVPGVGVPGVGVPGAGVPGVGVPGVGVPGVGVPGVGVPGAGVPGVGVPGVGVPGVGVPGVGVPGAGVPGVGVPGVGVPGVGVPGVGVPGAGVPGVGVPGVGVPGVGVPGVGVPGAGVPGVGVPGVGVPGVGVPGVGVPGAGVPGVGVPGVGVPGVGVPGVGVPGAGVPGVGVPGVGVPGVGVPGVGVPGAGVPGVGVPGVGVPGVGVPGVGVPGAGVPGVGVPGVGVPGVGVPGVGVPGAGVPGVGVPGVGVPGVGVPGVGVPGAGVPGVGVPGVGVPGVGVPGVGVPGAGVPGVGVPGVGVPGVGVPGVGVPGAGVPGVGVPGVGVPGVGVPGVGVPGAGVPGVGVPGVGVPGVGVPGVGVPGAGVPGVGVPGVGVPGVGVPGVGVPGAGVPGVGVPGVGVPGVGVPGVGVPGAGVPGVGVPGVGVPGVGVPGVGVPGAGVPGVGVPGVGVPGVGVPGVGVPGAGVPGVGVPGVGVPGVGVPGVGVPGAGVPGVGVPGVGVPGVGVPGVGVPGAGVPGVGVPGVGVPGVGVPGVGVPGAGVPGVGVPGVGVPGVGVPGVGVPGAGVPGVGVPGVGVPGAYPIPDSSPLLQFGGQVRQRYLYTDDDQDTEAHLEIREDGTVVGAAHRSPESLLELKALKPGVIQILGVKASRFLCQQPDGALYGSPHFDPEACSFRERLLEDGYNVYQSEAHGLPLRLPQKDSPNQDATSWGPVRFLPMPGLLHEPQDQAGFLPPEPPDVGSSDPLSMVEGSQGRSPSYASG",
,,,GLP1-ELP-FGF21 (after removal of the expression-enhancing sequence) (other) MSKGPGENLYFQGAHGEGTFTSDVSSYLEEQAAKEFIAWLVKGAGVGVPGVGVPGAGVPGVGVPGVGVPGVGVPGVGVPGAGVPGVGVPGVGVPGVGVPGVGVPGAGVPGVGVPGVGVPGVGVPGVGVPGAGVPGVGVPGVGVPGVGVPGVGVPGAGVPGVGVPGVGVPGVGVPGVGVPGAGVPGVGVPGVGVPGVGVPGVGVPGAGVPGVGVPGVGVPGVGVPGVGVPGAGVPGVGVPGVGVPGVGVPGVGVPGAGVPGVGVPGVGVPGVGVPGVGVPGAGVPGVGVPGVGVPGVGVPGVGVPGAGVPGVGVPGVGVPGVGVPGVGVPGAGVPGVGVPGVGVPGVGVPGVGVPGAGVPGVGVPGVGVPGVGVPGVGVPGAGVPGVGVPGVGVPGVGVPGVGVPGAGVPGVGVPGVGVPGVGVPGVGVPGAGVPGVGVPGVGVPGVGVPGVGVPGAGVPGVGVPGVGVPGVGVPGVGVPGAGVPGVGVPGVGVPGVGVPGVGVPGAGVPGVGVPGVGVPGVGVPGVGVPGAGVPGVGVPGVGVPGVGVPGVGVPGAGVPGVGVPGVGVPGVGVPGVGVPGAGVPGVGVPGVGVPGVGVPGVGVPGAGVPGVGVPGVGVPGVGVPGVGVPGAGVPGVGVPGVGVPGAYPIPDSSPLLQFGGQVRQRYLYTDDDQDTEAHLEIREDGTVVGAAHRSPESLLELKALKPGVIQILGVKASRFLCQQPDGALYGSPHFDPEACSFRERLLEDGYNVYQSEAHGLPLRLPQKDSPNQDATSWGPVRFLPMPGLLHEPQDQAGFLPPEPPDVGSSDPLSMVEGSQGRSPSYASG,"EC50, cAMP production (cAMP-inducible luciferase reporter) in HEK293 cells expressing GLP1R [1]: 0.212 nM"
,,18.8 nM,"ELP20%Ala,120-FGF21 (other) GVGVPGVGVPGAGVPGVGVPGVGVPGVGVPGVGVPGAGVPGVGVPGVGVPGVGVPGVGVPGAGVPGVGVPGVGVPGVGVPGVGVPGAGVPGVGVPGVGVPGVGVPGVGVPGAGVPGVGVPGVGVPGVGVPGVGVPGAGVPGVGVPGVGVPGVGVPGVGVPGAGVPGVGVPGVGVPGVGVPGVGVPGAGVPGVGVPGVGVPGVGVPGVGVPGAGVPGVGVPGVGVPGVGVPGVGVPGAGVPGVGVPGVGVPGVGVPGVGVPGAGVPGVGVPGVGVPGVGVPGVGVPGAGVPGVGVPGVGVPGVGVPGVGVPGAGVPGVGVPGVGVPGVGVPGVGVPGAGVPGVGVPGVGVPGVGVPGVGVPGAGVPGVGVPGVGVPGVGVPGVGVPGAGVPGVGVPGVGVPGVGVPGVGVPGAGVPGVGVPGVGVPGVGVPGVGVPGAGVPGVGVPGVGVPGVGVPGVGVPGAGVPGVGVPGVGVPGVGVPGVGVPGAGVPGVGVPGVGVPGVGVPGVGVPGAGVPGVGVPGVGVPGVGVPGVGVPGAGVPGVGVPGVGVPGVGVPGVGVPGAGVPGVGVPGVGVPGVGVPGVGVPGAGVPGVGVPGVGVPGAYPIPDSSPLLQFGGQVRQRYLYTDDDQDTEAHLEIREDGTVVGAAHRSPESLLELKALKPGVIQILGVKASRFLCQQPDGALYGSPHFDPEACSFRERLLEDGYNVYQSEAHGLPLRLPQKDSPNQDATSWGPVRFLPMPGLLHEPQDQAGFLPPEPPDVGSSDPLSMVEGSQGRSPSYASG","fold increase of FGF21 receptor EC50 against native mouse FGF21, ERK1/2 phosphorylation assay [2]: ~20 fold"
0.0295 nM,~10 fold,,"GLP1-ELP20%Ala,120 (other) HGEGTFTSDVSSYLEEQAAKEFIAWLVKGAGVGVPGVGVPGAGVPGVGVPGVGVPGVGVPGVGVPGAGVPGVGVPGVGVPGVGVPGVGVPGAGVPGVGVPGVGVPGVGVPGVGVPGAGVPGVGVPGVGVPGVGVPGVGVPGAGVPGVGVPGVGVPGVGVPGVGVPGAGVPGVGVPGVGVPGVGVPGVGVPGAGVPGVGVPGVGVPGVGVPGVGVPGAGVPGVGVPGVGVPGVGVPGVGVPGAGVPGVGVPGVGVPGVGVPGVGVPGAGVPGVGVPGVGVPGVGVPGVGVPGAGVPGVGVPGVGVPGVGVPGVGVPGAGVPGVGVPGVGVPGVGVPGVGVPGAGVPGVGVPGVGVPGVGVPGVGVPGAGVPGVGVPGVGVPGVGVPGVGVPGAGVPGVGVPGVGVPGVGVPGVGVPGAGVPGVGVPGVGVPGVGVPGVGVPGAGVPGVGVPGVGVPGVGVPGVGVPGAGVPGVGVPGVGVPGVGVPGVGVPGAGVPGVGVPGVGVPGVGVPGVGVPGAGVPGVGVPGVGVPGVGVPGVGVPGAGVPGVGVPGVGVPGVGVPGVGVPGAGVPGVGVPGVGVPGVGVPGVGVPGAGVPGVGVPGVGVPGVGVPGVGVPGAGVPGVGVPGVGVPG","fold increase of EC50 against native GLP-1, cAMP production assay [1]: 10 fold; fold increase of GLP-1R EC50 against native GLP-1, cAMP production assay [1]: ~10 fold"
,,43.2 nM,"GLP1-ELP20%Ala,120-FGF21 (other) AAHGEGTFTSDVSSYLEEQAAKEFIAWLVKGAGVGVPGVGVPGAGVPGVGVPGVGVPGVGVPGVGVPGAGVPGVGVPGVGVPGVGVPGVGVPGAGVPGVGVPGVGVPGVGVPGVGVPGAGVPGVGVPGVGVPGVGVPGVGVPGAGVPGVGVPGVGVPGVGVPGVGVPGAGVPGVGVPGVGVPGVGVPGVGVPGAGVPGVGVPGVGVPGVGVPGVGVPGAGVPGVGVPGVGVPGVGVPGVGVPGAGVPGVGVPGVGVPGVGVPGVGVPGAGVPGVGVPGVGVPGVGVPGVGVPGAGVPGVGVPGVGVPGVGVPGVGVPGAGVPGVGVPGVGVPGVGVPGVGVPGAGVPGVGVPGVGVPGVGVPGVGVPGAGVPGVGVPGVGVPGVGVPGVGVPGAGVPGVGVPGVGVPGVGVPGVGVPGAGVPGVGVPGVGVPGVGVPGVGVPGAGVPGVGVPGVGVPGVGVPGVGVPGAGVPGVGVPGVGVPGVGVPGVGVPGAGVPGVGVPGVGVPGVGVPGVGVPGAGVPGVGVPGVGVPGVGVPGVGVPGAGVPGVGVPGVGVPGVGVPGVGVPGAGVPGVGVPGVGVPGVGVPGVGVPGAGVPGVGVPGVGVPGVGVPGVGVPGAGVPGVGVPGVGVPGAYPIPDSSPLLQFGGQVRQRYLYTDDDQDTEAHLEIREDGTVVGAAHRSPESLLELKALKPGVIQILGVKASRFLCQQPDGALYGSPHFDPEACSFRERLLEDGYNVYQSEAHGLPLRLPQKDSPNQDATSWGPVRFLPMPGLLHEPQDQAGFLPPEPPDVGSSDPLSMVEGSQGRSPSYASG",
